Test results published in IntAct's records for PubMed 18688255.

B1: Cleavage and polyadenylation specificity factor subunit 2 (Homo sapiens), Q9P2I0 (parent)
chain: MTSIIKLTTLSGVQEESALCYLLQVDEFRFLLDCGWDEHFSMDIIDSLRKHVHQIDAVLLSHPDPLHLGALPYAVGKLGLNCAIYATIPVYKMGQMFMYDLYQSRHNTEDFTLFTLDDVDAAFDKIQQLKFSQIVNLKGKGHGLSITPLPAGHMIGGTIWKIVKDGEEEIVYAVDFNHKREIHLNGCSLEMLSRPSLLITDSFNATYVQPRRKQRDEQLLTNVLETLRGDGNVLIAVDTAGRVLELAQLLDQIWRTKDAGLGVYSLALLNNVSYNVVEFSKSQVEWMSDKLMRCFEDKRNNPFQFRHLSLCHGLSDLARVPSPKVVLASQPDLECGFSRDLFIQWCQDPKNSIILTYRTTPGTLARFLIDNPSEKITEIELRKRVKLEGKELEEYLEKEKLKKEAAKKLEQSKEADIDSSDESDIEEDIDQPSAHKTKHDLMMKGEGSRKGSFFKQAKKSYPMFPAPEERIKWDEYGEIIKPEDFLVPELQATEEEKSKLESGLTNGDEPMDQDLSDVPTKCISTTESIEIKARVTYIDYEGRSDGDSIKKIINQMKPRQLIIVHGPPEASQDLAECCRAFGGKDIKVYMPKLHETVDATSETHIYQVRLKDSLVSSLQFCKAKDAELAWIDGVLDMRVSKVDTGVILEEGELKDDGEDSEMQVEAPSDSSVIAQQKAMKSLFGDDEKETGEESEIIPTLEPLPPHEVPGHQSVFMNEPRLSDFKQVLLREGIQAEFVGGVLVCNNQVAVRRTETGRIGLEGCLCQDFYRIRDLLYEQYAIV
partner: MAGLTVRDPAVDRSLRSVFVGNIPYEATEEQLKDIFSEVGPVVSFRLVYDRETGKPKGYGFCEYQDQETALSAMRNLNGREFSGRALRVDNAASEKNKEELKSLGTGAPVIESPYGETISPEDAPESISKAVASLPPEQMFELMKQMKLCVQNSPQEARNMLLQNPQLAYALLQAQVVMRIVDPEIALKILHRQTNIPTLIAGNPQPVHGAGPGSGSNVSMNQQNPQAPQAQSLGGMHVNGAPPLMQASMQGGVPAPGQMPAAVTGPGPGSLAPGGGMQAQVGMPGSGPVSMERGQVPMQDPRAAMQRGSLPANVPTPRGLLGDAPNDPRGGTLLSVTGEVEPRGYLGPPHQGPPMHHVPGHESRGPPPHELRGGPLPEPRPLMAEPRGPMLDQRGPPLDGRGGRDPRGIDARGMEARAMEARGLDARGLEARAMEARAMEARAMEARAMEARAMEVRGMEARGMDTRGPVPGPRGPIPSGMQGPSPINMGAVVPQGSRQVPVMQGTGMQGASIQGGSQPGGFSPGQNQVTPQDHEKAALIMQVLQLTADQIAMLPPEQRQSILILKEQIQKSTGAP
B2: Cleavage and polyadenylation specificity factor subunit 2 (Homo sapiens), Q9P2I0 (parent)
chain: B1 chain
partner: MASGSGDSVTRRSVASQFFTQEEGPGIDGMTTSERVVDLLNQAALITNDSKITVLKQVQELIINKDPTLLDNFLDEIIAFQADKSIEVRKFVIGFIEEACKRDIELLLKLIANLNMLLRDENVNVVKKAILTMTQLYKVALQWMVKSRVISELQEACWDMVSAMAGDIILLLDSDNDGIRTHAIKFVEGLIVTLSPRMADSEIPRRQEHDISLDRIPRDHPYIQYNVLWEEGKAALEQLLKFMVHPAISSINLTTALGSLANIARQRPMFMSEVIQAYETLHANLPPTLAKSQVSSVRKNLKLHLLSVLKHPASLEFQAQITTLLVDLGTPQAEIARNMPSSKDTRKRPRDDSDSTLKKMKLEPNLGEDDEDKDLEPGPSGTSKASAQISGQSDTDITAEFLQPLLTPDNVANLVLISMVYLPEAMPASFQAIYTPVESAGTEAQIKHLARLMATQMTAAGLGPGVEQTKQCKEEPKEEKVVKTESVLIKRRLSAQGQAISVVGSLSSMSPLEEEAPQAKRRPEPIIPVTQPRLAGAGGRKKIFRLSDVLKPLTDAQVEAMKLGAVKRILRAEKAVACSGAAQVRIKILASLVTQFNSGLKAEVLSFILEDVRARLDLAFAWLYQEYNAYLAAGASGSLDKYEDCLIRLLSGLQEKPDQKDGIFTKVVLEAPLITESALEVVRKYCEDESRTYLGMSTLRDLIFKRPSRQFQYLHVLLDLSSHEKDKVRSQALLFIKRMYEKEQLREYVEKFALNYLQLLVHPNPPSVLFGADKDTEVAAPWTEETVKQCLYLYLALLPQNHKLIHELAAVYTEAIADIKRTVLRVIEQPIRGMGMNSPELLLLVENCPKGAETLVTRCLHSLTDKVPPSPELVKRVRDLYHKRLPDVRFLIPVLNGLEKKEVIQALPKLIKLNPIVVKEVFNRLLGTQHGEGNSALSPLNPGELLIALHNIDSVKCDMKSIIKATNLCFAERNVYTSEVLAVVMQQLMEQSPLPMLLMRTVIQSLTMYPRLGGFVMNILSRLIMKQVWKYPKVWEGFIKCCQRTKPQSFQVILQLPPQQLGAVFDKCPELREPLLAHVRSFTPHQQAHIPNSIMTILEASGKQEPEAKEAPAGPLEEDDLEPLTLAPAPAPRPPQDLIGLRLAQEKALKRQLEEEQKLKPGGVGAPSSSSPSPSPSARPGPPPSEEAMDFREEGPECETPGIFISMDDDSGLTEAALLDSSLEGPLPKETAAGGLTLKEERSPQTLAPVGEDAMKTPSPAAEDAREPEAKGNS

Variants of: B1
Settings: with cstf2_human CSTF2, P33240

effect of a mutation on the interaction | Variant
disrupting interaction | R543A

Variants of: B2
Settings: with sympk_human SYMPK

effect of a mutation on the interaction | Variant
decreasing interaction | H67A
